Tested on: MS2 coat protein
Test: apparent KD of MS2 coat protein; higher = weaker reporter binding
Conditions: Eterna round: R107; input ligand: none
Procedure, shortened: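 The designed RNA switches were transcribed on-chip from Illumina sequencing clusters. In 100 mM Tris-HCl pH 7.5, 80 mM KCl and 4 mM MgCl2, without or with constant ligand, they were titrated with SNAP-549-labelled MS2 coat protein from 0.7 or 1.5 nM to 3 µM in twofold steps. Apparent KD is the per-design median of normalised cluster binding-curve fits.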

Sequence	apparent KD of MS2 coat protein
UACAUAUGCCGAAGGAGCGUGAGAUGCAAAGCAUCAUUCCUCACAUGAGGAUCACCCAUGUCACAGGUAGGUCGCGGCAUAUGUU [ArgBX 3]	90 nM
AGCUCGCAUCCUCAAGCGUCAAAGACGCGUCGAGGACCGGUACGGCCGCCACUCGACCUGAGGAACACCCAGGUCCUCGCGAGCA [TrypAX 7 #SwitchBubble #AlternativeMS2 #MS2Late #CuTurnoff]	26.1 nM
UUGUAUAUGCGAAGGAGCGGGAAAUAUAUAUAUAUAAUCCUAACAUGAGGAUCACCCAUGUCCCAGGUAGGUCGCGCAUAUGUGG [12.G]	58.8 nM
AUACAUGAGGAUCACCCAUGUUAUAGUGAAGGAGCGACAUUUAGGUCAGGUAGGUCGCACUAUAGUAUUAUAAUUCUUAGUUCUU [JR_ExcArginiA_Sub018]	18.4 nM
CCGCACAUGAGGAUCACCCAUGUCAGGGAUACCAGCCCAGACAUGGGCCCUUGGCAGCCCUGUAGCUGACGAAAGUCAGCAGCGG [Omei Theo A SS A v1]	31.7 nM
AUAUUUAACGGAAGGAGCGCGGAAUAAUAAGUGGGUAAACAUGAGGAUCACCCAUGUAAACCGCAGGUAGGUCGCCGAAUAAUAA [AstrosEXyARgB#4]	89.4 nM
AUCAUGGCCAUCGAUACCAGCUACAUGAGGAUCACCCAUGUAAACGGCCCGGUGAGAUGUAGCCCUUGGCAGCGAAGGGUCGAGG [Inenenatti]	18.6 nM
AUGCAUAUCAGAAGGAGCGUCAUUAACAUGAGGAUCACCCAUGUAACAUUGAAUUCGAUGAGACAGGUAGGUCGCUGAAUAGUAA [SS-ArgB26]	35.6 nM
ACAUGAGGGCGAAGGAGCGCGUACAUGAGGAUCACCCAUGUCUAUAUCCGUCCGCGUGUAACGCAGGUAGGUCGCGCUGUUAAUU [#14 Exclusion - Arginine B]	16 nM
UUCGUUUGCGGAAGGAGCGACGGACAUCGGUGACCCACGCACAUGAGGAUCACCCAUGUACGUCAGGUAGGUCGCCGCUAAGAGU [XArg-B4]	17.4 nM
GGACUAACCAGAAGGAGCGACGCAAGCAGAAACUGCAAUCCUCCGCACGAGGAUCACCCGUGUCAGGUAGGUCGCUGGUUAGUCG [ArgBX 28]	28.2 nM
GGCACAUGUGGAAGGAGCGUCGUACGAGCUACAUGAGGAUCACCCAUGUCGGUUAGUGUCCGACAGGUAGGUCGCCACAUUUAAC [Isiser]	374 nM
CCGGGCUGUGGAGACAUAGCCCGGACUGAAGGAGCGGGAAUAAACCCAGGUAGGUCGCAGAGAUCCACAUGAGGAUCACCCAUGU [!0.S]	34 nM
UGGAGUAUCAGACAUGAGGAUCACCCAUGUCGAGGACCGGUACGGCCGCCACUCGGCAGUUUGCGUCCUCAGGUACUCCGGGUAA [Edlatearis]	11.2 nM
UGGGUAGCAUAGAUUGAUAGCUACACUGAAGGAGCGAGGAUAACCUCAGGUAGGUCGCAGACAUGAGGAUCACCCAUGUAGAUGG [Same State Arginine A GF17]	254 nM
UCGCUCUGGGUGAGUUCCGGAGAUGUGGAAGGAGCGCUCGAAAGAGCAGGUAGGUCGCCAACGGACAUGAGGAUCACCCAUGUAC [Same State - Arginine A (Freestyle 21)]	39.1 nM
GAGUUCCUGAGAGAUACCAGUGAAGCCACAUGAGGAUCACCCAUGUCCCUCACUCCGGCCCACCCUUGGCAGCUCGAAAGAUGGA [Exclusion Theophylline B GF 21]	105 nM
GGGCGCGUGGACUGGCGUGCUCCGCUCCGUCGAGGACCGGUACGGCCGCCACUCGACAUGAGGAUCACCCAUGUGUGCGCUCGCG [#1 Exclusion - Tryptophan A Attempt #18 (HarryS)]	21 nM
UGUAACAUGAGGAUCACCCAUGUGAGUGAUACCAGACUAGUGUUAGUCCCUUGGCAGCACGCUGGGCGAGUGUGUAGUCUAUGCG [Same State - Theophylline A (Freestyle 16)]	108 nM

Same assay, conditions: Eterna round: R107; input ligand: theophylline 20 uM

Sequence	apparent KD of MS2 coat protein
UACAUAUGCCGAAGGAGCGUGAGAUGCAAAGCAUCAUUCCUCACAUGAGGAUCACCCAUGUCACAGGUAGGUCGCGGCAUAUGUU [ArgBX 3]	115 nM
UGACAUUGCUCAGAUACCAGACGUGAGCAUCAGCCAUGUGCCAACAAGUACAAAAUAAAUGUCCCUUGGCAGCUGAGCAAUGUCU [TheoBX 22 #MS2Left #AlternativeMS2 #Theo22]	23.4 nM
CGGCUCAUAAUGGAUACCAGUCCAGCAUAGAAACCUUGACACAUGAGGAUCACCCAUGUUGACCCUUGGCAGCCAUUGAUCAUAC [theeternabot_exclusion_MS2_Theo_B_28]	36.5 nM
AGCUCGCAUCCUCAAGCGUCAAAGACGCGUCGAGGACCGGUACGGCCGCCACUCGACCUGAGGAACACCCAGGUCCUCGCGAGCA [TrypAX 7 #SwitchBubble #AlternativeMS2 #MS2Late #CuTurnoff]	40.2 nM
UAAUCCGGUCCUCGAUAACAUGGGUGAAUACGAGGACCGGUACGGCCGCCACUCGAUAACAUGAGGAUCACCCAUGUAAUAAUAA [|T'-M'-Trp-Ms2|_Design15]	111 nM
UUGUAUAUGCGAAGGAGCGGGAAAUAUAUAUAUAUAAUCCUAACAUGAGGAUCACCCAUGUCCCAGGUAGGUCGCGCAUAUGUGG [12.G]	65.6 nM
ACAUGAGGAUCACCCAUGUCAGGGCACGAUACCAGCUGAUCCGAUGGCCCUUGGCAGCGUGACGUGUGGUCAUGAGGAUCACCCG [kvfmullin]	209 nM
AUACAUGAGGAUCACCCAUGUUAUAGUGAAGGAGCGACAUUUAGGUCAGGUAGGUCGCACUAUAGUAUUAUAAUUCUUAGUUCUU [JR_ExcArginiA_Sub018]	27.9 nM
CCAUAAGUACCGGUCCUCAGAUCCUCAUGACGAGGACCGGUACGGCCGCCACUCGAAACAUGAGGAUCACCCAUGUAAUAAUACC [Brourdmod18]	101 nM
CCGCACAUGAGGAUCACCCAUGUCAGGGAUACCAGCCCAGACAUGGGCCCUUGGCAGCCCUGUAGCUGACGAAAGUCAGCAGCGG [Omei Theo A SS A v1]	277 nM
AUAUUUAACGGAAGGAGCGCGGAAUAAUAAGUGGGUAAACAUGAGGAUCACCCAUGUAAACCGCAGGUAGGUCGCCGAAUAAUAA [AstrosEXyARgB#4]	115 nM
GCUACACAGGACCGUACUAAGGAUUCGCCUCGAGGACCGGUACGGCCGCCACUCGUUGCGCGACAUGAGGAUCACCCAUGUGUUC [theeternabot_exclusion_MS2_Trp_A_33]	48.3 nM
UGUCAGCGAAAGUUGACAUGUCUUACCGGUCGAGGACCGGUACGGCCGCCACUCGAUCACUCGCACAUGAGGAUCACCCAUGUUG [SS Tryp A #21]	24.6 nM
AUCAUGGCCAUCGAUACCAGCUACAUGAGGAUCACCCAUGUAAACGGCCCGGUGAGAUGUAGCCCUUGGCAGCGAAGGGUCGAGG [Inenenatti]	24.3 nM
AUGCAUAUCAGAAGGAGCGUCAUUAACAUGAGGAUCACCCAUGUAACAUUGAAUUCGAUGAGACAGGUAGGUCGCUGAAUAGUAA [SS-ArgB26]	44.9 nM
ACAUGAGGGCGAAGGAGCGCGUACAUGAGGAUCACCCAUGUCUAUAUCCGUCCGCGUGUAACGCAGGUAGGUCGCGCUGUUAAUU [#14 Exclusion - Arginine B]	21.6 nM
UUCGUUUGCGGAAGGAGCGACGGACAUCGGUGACCCACGCACAUGAGGAUCACCCAUGUACGUCAGGUAGGUCGCCGCUAAGAGU [XArg-B4]	47.4 nM
AACAUGAGGAUCACCCAUGUUCUCGUGUACCGAGGACCGGUACGGCCGCCACUCGGUUCUCGCGAGGAUGGUCAAAGACUAUCCA [Omei Trp A SS B v5]	25.1 nM
GGACUAACCAGAAGGAGCGACGCAAGCAGAAACUGCAAUCCUCCGCACGAGGAUCACCCGUGUCAGGUAGGUCGCUGGUUAGUCG [ArgBX 28]	38.4 nM

Reference: the supplement of paper PMC9170038
